Measurements as given in patent US20220112180, “NOVEL COMPOUNDS AS POTENTIAL THERAPEUTIC AGENTS TARGETING VARIOUS NEURODEGENERATIVE DISEASES” (The Hong Kong University of Science and Technology, published 2022).

Legend:
[1] = target: T1, hnRNP H RRM domain (RRM1/2) (UniProt P31943 P31943:11-188); assay: 1H-15N HSQC NMR titration at 1:0.5, described as potent binding; 20 mM potassium phosphate, 70 mM KCl, pH 7.0, 25 C; conditions: tags: His6 cleaved by 3C protease; pET-28a(+), E. coli BL21(DE3); 15N-labelled; G4
T1 sequence: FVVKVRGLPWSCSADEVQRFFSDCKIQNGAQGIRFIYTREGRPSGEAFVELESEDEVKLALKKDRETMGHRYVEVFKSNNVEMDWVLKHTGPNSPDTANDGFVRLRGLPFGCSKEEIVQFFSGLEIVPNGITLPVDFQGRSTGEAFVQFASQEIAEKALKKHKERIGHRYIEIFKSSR
Experimental: (§1) Titration experiments were performed by recording a series of 2D ¹⁵N-HSQC spectra on uniformly ¹⁵N-labeled RRM domain (˜0.1 mM) in the presence of different amounts of DNA/RNA or compounds at 25° C. Protein samples and stock solutions of DNA/RNA were all prepared in 20 mM potassium phosphate buffer and 70 mM KCl, pH 7.0, 10% D₂O. All compounds were dissolved in isotope-labeled d₆-DMSO (Sigma-Aldrich) at about 50 mM concentration, working as stock solutions. To avoid chemical shift changes of protein samples resulted from d₆-DMSO addition, 10 μL d₆-DMSO was added into 500 μL of 0.1 mM protein solution in the NMR buffer (20 mM potassium phosphate buffer and 70 mM KCl, pH 7.0, 10% D₂O) and then the 2D HSQC was recorded as a reference.

[2] = target: T1, hnRNP H RRM domain (RRM1/2); assay: 1H-15N HSQC NMR titration at 1:0.5; 20 mM potassium phosphate, 70 mM KCl, pH 7.0, 25 C; conditions: tags: His6 cleaved by 3C protease; pET-28a(+), E. coli BL21(DE3); 15N-labelled; G4
Experimental: as §1

GGGGCCGGGGCCGGGGCCGGGGCC (structured_DNA) [DNA (G4C2)4 G4]: binds [1].

GGGGCCGGGGCC (ssRNA) [RNA (G4C2)2 G4]: binds [2].
